Assay results: paper PMC4251946, “The mechanism of H171T resistance reveals the importance of Nδ-protonated His171 for the binding of allosteric inhibitor BI-D to HIV-1 integrase” (Retrovirology, 2014)

What was measured:
[1] = target: H171T HIV-1 integrase (IN) (HIV-1); assay: SEC; Superdex 200 10/300 GL; 20 mM HEPES pH 6.8, 750 mM NaCl, 10 mM MgSO4, 0.2 mM EDTA, 5 mM BME, 5% glycerol, 200 μM ZnCl2; 4°C; tetramer and monomer peaks
[2] = target: H171T HIV-1 integrase (IN) (HIV-1); assay: AlphaScreen or HTRF
LEDGF/p75 = target: T1, LEDGF/p75 (UniProt O75475 1-530); assay: AlphaScreen or HTRF; details: both partners purified
T1 construct: source: E. coli, purified as described previously [37]; not shown: FLAG, C-terminal, kept

Work on H171T HIV-1 integrase (IN) (enzyme) yielded a stoichiometry N [1] of 4.

“LEDGF/p75 (from UniProt O75475 1-530) (natural protein)” gave a Kd [2] of 10.5 nM.

B1: WT HIV-1 integrase (IN) (enzyme)
chain: FLDGIDKAQEEHEKYHSNWRAMASDFNLPPVVAKEIVASCDKCQLKGEAMHGQVDCSPGIWQLDCTHLEGKVILVAVHVASGYIEAEVIPAETGQETAYFLLKLAGRWPVKTVHTDNGSNFTSTTVKAACWWAGIKQEFGIPYNPQSQGVIESMNKELKKIIGQVRDQAEHLKTAVQMAVFIHNFKRKGGIGGYSAGERIVDIIATDIQTKELQKQITKIQNFRVYYRDSRDPVWKGPAKLLWKGEGAVVIQDNSDIKVVPRRKAKIIRDYGKQMAGDDCVASRQDED
notes: also called WT IN; source: E. coli, purified as described previously [37]; not shown: 6xHis, N-terminal, kept
B1 gave a Kd (LEDGF/p75) of 3.3 ± 0.3 nM.
